Experimental data from patent US20050222400, “Aptamer constructs” (published 2005).

How the values were obtained:
[1] = molecular target: T1, HIV-1 reverse transcriptase (RT) (HIV-1, UniProt P04585;P04585 P04585:588-1147,P04585:588-1027); assay: inhibition; RT activity, 80 mM KCl, 50 mM Tris pH 8.0, 6 mM MgCl2, 37 C; settings: pseudoknot-like potential stated for some aptamers
Protocol: (§1) In vitro RT inhibition. To determine the IC₅₀ values, self-cleaved RNA aptamers were gel purified and eluted in 500 mM NH₄OAc/1 mM EDTA/0.2% SDS. RNA was then treated with phenol/chloroform and ethanol precipitated. RT reactions (50 μl) contained 80 mM KCl, 50 mM Tris-Cl (pH 8.0), 6 mM MgCl₂, 1 mM dithiothreitol (DTT), 0.1 mg/ml BSA, 10 μM […], 25 μM each of the remaining three dNTPs, and a range of concentrations of RNA aptamers (1 nM to 1000 nM). Reactions were incubated at 37° C. for 15 min. Reactions initiated by the addition of 25 ng of purified HIV-1 RT and at the end of the reaction, aliquots were spotted onto DE81 filter paper and washed with 2×SSC (30 mM Sodium Citrate, 300 mM NaCl pH 7.0). Dried filters were then counted and individual IC₅₀s were determined by fitting results to a dose-response curve using nonlinear regression (GraphPad Software Inc., San Diego, Calif.).
(§2) Next, the ability of each of the 10 selected RNA aptamers to inhibit recombinant purified HIV-1 RT was evaluated in vitro and the degree of inhibition (IC₅₀) by each aptamer was determined. In vitro transcription of the primary transcripts with T3 RNA polymerase was followed by gel purification of the processed aptamers. The IC₅₀s calculated ranged from 89 nM to >1000 nM (Table 1). Six RNA aptamers were selected for further studies, to test their effectiveness in inhibiting HIV-1 replication.

[2] = molecular target: T1, HIV-1 reverse transcriptase (RT); assay: EMSA; 50 mM KCl, 25 mM NaCl, 5% glycerol, BSA, 25 C; processed RNA with flanks; settings: pseudoknot-like potential stated for some aptamers
Protocol: (§3) Radiolabeled, processed RNA aptamers were gel purified and eluted in 500 mM NH₄OAc/1 mM EDTA/0.2% SDS. RNA was then treated with phenouchloroform and ethanol precipitated. Electrophoretic mobility shift assays were performed by incubating 10 fmol purified RNA aptamer with increasing amounts of purified HIV-1 RT at 25° C. in 10 μl of buffer containing 50 mM KCl, 25 mM NaCl, 5% glycerol, 300 μg/ml BSA. The reaction products were electrophoresed on native polyacrylamide gels. Dried gels were exposed to a phosphorimager screen and Kd calculated by using the ImageQuant software. To determine the binding strengths, the percentage of band shift observed with increasing concentrations of RT (1 nM to 500 nM), with respect to the no protein control lane, was first determined. The Kd values were determined by fitting data from three independent experiments to a dose response curve using nonlinear regression (Cann 1996) (GraphPad Software Inc.).
Therefore, the ability of each of the 10 selected RNA aptamers to bind recombinant purified HIV-1 RT was evaluated in vitro via an electrophoretic mobility shift assay (EMSA) and the dissociation constants determined for each individual aptamer in its processed form. In vitro transcription of the primary transcripts, with T3 RNA polymerase was followed by gel purification of the processed aptamers. […]

[3] = molecular target: T1, HIV-1 reverse transcriptase (RT); assay: inhibition; RT activity, 80 mM KCl, 6 mM MgCl2, pH 8.0, 37 C
Protocol: as §1, §2

[4] = molecular target: T1, HIV-1 reverse transcriptase (RT); assay: EMSA; 50 mM KCl, 25 mM NaCl, 5% glycerol, BSA, 25 C
Protocol: as §3
Therefore, the ability of each of the 10 selected RNA aptamers to bind recombinant purified HIV-1 RT was evaluated in vitro via an electrophoretic mobility shift assay (EMSA) and the dissociation constants determined for each individual aptamer in its processed form. In vitro transcription of the primary transcripts, with T3 RNA polymerase was followed by gel purification of the processed aptamers. The aptamer RNAs were incubated with increasing concentrations of purified recombinant HIV-1 RT, the reactions were resolved on a non-denaturing polyacrylamide gel (FIG. 3) and Kd values calculated based on the degree of band shift caused by the formation of RNA-protein complexes (see Methods section).

B1: aptamer 70.8,13 (ssRNA)
RNA: AGCUCGAGCUCGAAUUCAAAGAGAUCUGGCAGUGUCACAACCAGGAAAAAGACACGACGAACGGGCCCGGAUCCGUC
**Q.** How did the IC50 [1] turn out when B1 was run?
**A.** 89 nM

**Q.** And the Kd [2]?
**A.** 27 nM

B2: aptamer 70.15 (ssRNA)
RNA: AGCUCGAGCUCGAAUUCCCUACGAACCCAGGAGAUAAGGGGGAAAACUCUGGAAAACGGGCCCGGAUCCGUC
**Q.** How did the IC50 [3] turn out when B2 was run?
**A.** 159 nM

**Q.** And the Kd [4]?
**A.** 63 nM

B3: aptamer 80.55,65 (ssRNA)
RNA: AGCUCGAGCUCGAAUUCAUUUAAUUCCAUAAUGGCUCACCACAAGGGGAACGUUGAUGAAAUAGGGCCCGGAUCCGUC
**Q.** Which IC50 [3] does the source give for B3 here?
**A.** 143 nM

**Q.** What about the Kd [4] of the same binder?
**A.** 129 nM

B4: aptamer 70.28 (ssRNA)
RNA: AGCUCGAGCUCGAAUUCACAAGAACCGGACCGGGUGAGAACCGAGACAAACACCCACCAAGAGGGCCCGGAUCCGUC
**Q.** What does the source list for B4?
**A.** IC50 ([3]; pseudoknot): 254 nM; Kd ([4]; pseudoknot): 201 nM

B5: aptamer 70.28t34 (ssRNA)
RNA: AGCUCGAGCUCGAAUUCGGGAACCGGACGGGUGAGAACCGAGACAAACACCGGGCCCGGAUCCGUC
**Q.** For B5, which IC50 [3] is on record?
**A.** 327 nM

**Q.** And the Kd [4]?
**A.** 219 nM

B6: aptamer 1.1 (ssRNA)
RNA: AGCUCGAGCUCGAAUUCGGGAGAUUCCGUUUUCAGUCCGGGAAAAACUGAAGGGCCCGGAUCCGUC
**Q.** B6 was tested. Which IC50 [3] did it give?
**A.** 607 nM

**Q.** What about the Kd [4] of the same binder?
**A.** 270 nM
